# Measured values: the supplement of paper PMC9112550, “Optimization of the antimicrobial peptide Bac7 by deep mutational scanning” (BMC Biology, 2022)
# Tested on: Escherichia coli TOP10
# Test: shrunken log2 fold change of peptide-encoding DNA abundance (4.5 h post-induction vs induction); higher = less antimicrobial activity (less host growth inhibition)
# Conditions: time post-induction: 4.5 h; library: site-saturation at positions 5, 18, 19, 20
# 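Further: peptides expressed intracellularly from a pBAD plasmid library in pooled LB shake-flask culture, induced with 0.3% L-arabinose, DNA abundance read by NGS, three biological replicates, DESeq2 with apeglm shrinkage.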
row,Sequence,shrunken log2 fold change
1,RRIRSRPPRLPRPRPRPWCHPRP,-0.4
2,RRIRFRPPRLPRPRPRPTDLPRP,0.15
3,RRIRIRPPRLPRPRPRPLFSPRP,-0.423
4,RRIRQRPPRLPRPRPRPSDDPRP,-0.0143
5,RRIRNRPPRLPRPRPRPQIHPRP,-0.364
6,RRIRMRPPRLPRPRPRPKCFPRP,0.0196
7,RRIRERPPRLPRPRPRPHWFPRP,-0.128
8,RRIRCRPPRLPRPRPRPCNCPRP,-0.278
9,RRIRERPPRLPRPRPRPCCNPRP,-0.0562
10,RRIRWRPPRLPRPRPRPAEGPRP,0.000853
11,RRIRRRPPRLPRPRPRPQTIPRP,0.272
12,RRIRVRPPRLPRPRPRPQPYPRP,-0.486
13,RRIRWRPPRLPRPRPRPISHPRP,-0.24
14,RRIRTRPPRLPRPRPRPANNPRP,-0.736
15,RRIRARPPRLPRPRPRPRFIPRP,-0.259
16,RRIRGRPPRLPRPRPRPRDQPRP,1.26
17,RRIRTRPPRLPRPRPRPVNRPRP,-0.0356
18,RRIRIRPPRLPRPRPRPNCKPRP,-0.658
19,RRIRFRPPRLPRPRPRPSTTPRP,-0.362
20,RRIRQRPPRLPRPRPRPFFHPRP,-0.532
21,RRIRDRPPRLPRPRPRPLNAPRP,-0.0226
22,RRIRTRPPRLPRPRPRPAHGPRP,0.00693
23,RRIRQRPPRLPRPRPRPKTTPRP,-0.636
24,RRIRYRPPRLPRPRPRPYVTPRP,-0.115
25,RRIRFRPPRLPRPRPRPRGKPRP,0.734

row,Sequence,shrunken log2 fold change
1,RRIRYRPPRLPRPRPRPKYDPRP,-0.324
2,RRIRWRPPRLPRPRPRPCHHPRP,-0.723
3,RRIRFRPPRLPRPRPRPMHTPRP,0.5
4,RRIRNRPPRLPRPRPRPATVPRP,-0.17
5,RRIRCRPPRLPRPRPRPHTTPRP,-0.716
6,RRIRMRPPRLPRPRPRPWEKPRP,0.217
7,RRIRSRPPRLPRPRPRPPKWPRP,0.329
8,RRIRYRPPRLPRPRPRPLQIPRP,-0.51
9,RRIRSRPPRLPRPRPRPVSDPRP,0.32
10,RRIRKRPPRLPRPRPRPLQDPRP,0.485
11,RRIRVRPPRLPRPRPRPLHEPRP,-0.0936
12,RRIRHRPPRLPRPRPRPQKPPRP,-0.0624
13,RRIRCRPPRLPRPRPRPEMRPRP,0.835
14,RRIRNRPPRLPRPRPRPKEKPRP,-0.016
15,RRIRFRPPRLPRPRPRPFCWPRP,0.4
16,RRIRKRPPRLPRPRPRPIVKPRP,-0.158
17,RRIRQRPPRLPRPRPRPYTDPRP,-0.209
18,RRIRWRPPRLPRPRPRPLSKPRP,-0.0363
19,RRIRERPPRLPRPRPRPLEHPRP,-0.277
20,RRIRQRPPRLPRPRPRPTPPPRP,0.537
21,RRIRVRPPRLPRPRPRPNKLPRP,-0.325
22,RRIRHRPPRLPRPRPRPAVFPRP,-0.0167
23,RRIRARPPRLPRPRPRPCDYPRP,-0.295
24,RRIRMRPPRLPRPRPRPNWPPRP,0.096
25,RRIRKRPPRLPRPRPRPGTVPRP,0.0317

row,Sequence,shrunken log2 fold change
1,RRIRSRPPRLPRPRPRPNHAPRP,-0.278
2,RRIRARPPRLPRPRPRPCKTPRP,0.107
3,RRIRVRPPRLPRPRPRPGVTPRP,0.0341
4,RRIRSRPPRLPRPRPRPQNSPRP,-0.207
5,RRIRVRPPRLPRPRPRPIKTPRP,0.059
6,RRIRERPPRLPRPRPRPLCEPRP,0.0297
7,RRIRLRPPRLPRPRPRPKGAPRP,0.379
8,RRIRSRPPRLPRPRPRPWTTPRP,0.00749
9,RRIRWRPPRLPRPRPRPTSLPRP,0.0239
10,RRIRIRPPRLPRPRPRPQNKPRP,-0.668
11,RRIRKRPPRLPRPRPRPTVCPRP,0.765
12,RRIRHRPPRLPRPRPRPDSYPRP,-0.0167
13,RRIRARPPRLPRPRPRPTWTPRP,0.425
14,RRIRLRPPRLPRPRPRPMMLPRP,-0.335
15,RRIRLRPPRLPRPRPRPPPNPRP,1.18
16,RRIRDRPPRLPRPRPRPNLMPRP,0.0913
17,RRIRKRPPRLPRPRPRPSFTPRP,-0.272
18,RRIRPRPPRLPRPRPRPGEVPRP,0.605
19,RRIRIRPPRLPRPRPRPVWTPRP,-0.273
20,RRIRFRPPRLPRPRPRPLYVPRP,-0.631
21,RRIRPRPPRLPRPRPRPQFQPRP,-0.192
22,RRIRDRPPRLPRPRPRPWNFPRP,0.0173
23,RRIRLRPPRLPRPRPRPAQRPRP,0.172
24,RRIRNRPPRLPRPRPRPNWDPRP,-0.163
25,RRIRPRPPRLPRPRPRPNHIPRP,-0.856

row,Sequence,shrunken log2 fold change
1,RRIRSRPPRLPRPRPRPLVYPRP,-0.206
2,RRIRGRPPRLPRPRPRPRPIPRP,0.635
3,RRIRMRPPRLPRPRPRPYLGPRP,-0.331
4,RRIRDRPPRLPRPRPRPRGIPRP,-0.0372
5,RRIRYRPPRLPRPRPRPSPFPRP,0.0737
6,RRIRKRPPRLPRPRPRPIKNPRP,-0.188
7,RRIRFRPPRLPRPRPRPCARPRP,0.232
8,RRIRTRPPRLPRPRPRPMQVPRP,-0.21
9,RRIRQRPPRLPRPRPRPILQPRP,0.292
10,RRIRWRPPRLPRPRPRPGPQPRP,0.938
11,RRIRGRPPRLPRPRPRPPFFPRP,0.851
12,RRIRKRPPRLPRPRPRPFCAPRP,0.588
13,RRIRYRPPRLPRPRPRPQRSPRP,-0.129
14,RRIRPRPPRLPRPRPRPCIIPRP,-0.438
15,RRIRSRPPRLPRPRPRPENPPRP,-0.143
16,RRIRGRPPRLPRPRPRPRFRPRP,0.3
17,RRIRIRPPRLPRPRPRPLYEPRP,-0.649
18,RRIRLRPPRLPRPRPRPAFPPRP,0.0371
19,RRIRYRPPRLPRPRPRPIARPRP,0.00902
20,RRIRKRPPRLPRPRPRPHDAPRP,0.437
21,RRIRVRPPRLPRPRPRPRPWPRP,0.178
22,RRIRARPPRLPRPRPRPHKAPRP,0.102
23,RRIRQRPPRLPRPRPRPWILPRP,-0.00158
24,RRIRVRPPRLPRPRPRPDCAPRP,0.0509
25,RRIRARPPRLPRPRPRPMDFPRP,2.73

row,Sequence,shrunken log2 fold change
1,RRIRARPPRLPRPRPRPEPLPRP,0.284
2,RRIRARPPRLPRPRPRPLPGPRP,0.467
3,RRIRWRPPRLPRPRPRPWWCPRP,-0.0237
4,RRIRQRPPRLPRPRPRPSTVPRP,-0.534
5,RRIRQRPPRLPRPRPRPMKLPRP,0.00355
6,RRIRQRPPRLPRPRPRPVTDPRP,0.05
7,RRIRDRPPRLPRPRPRPKATPRP,0.00253
8,RRIRWRPPRLPRPRPRPWDMPRP,-0.00946
9,RRIRPRPPRLPRPRPRPEKDPRP,-0.0428
10,RRIRYRPPRLPRPRPRPYMAPRP,-1.71
11,RRIRVRPPRLPRPRPRPGETPRP,-0.238
12,RRIRHRPPRLPRPRPRPMYFPRP,-0.00207
13,RRIRPRPPRLPRPRPRPKTIPRP,-0.0767
14,RRIRFRPPRLPRPRPRPTIGPRP,-0.0631
15,RRIRWRPPRLPRPRPRPVFMPRP,-0.0684
16,RRIRHRPPRLPRPRPRPVDQPRP,0.00586
17,RRIRGRPPRLPRPRPRPLFDPRP,0.548
18,RRIRERPPRLPRPRPRPHYKPRP,-0.901
19,RRIRARPPRLPRPRPRPPWMPRP,0.463
20,RRIRMRPPRLPRPRPRPEPKPRP,2.51
21,RRIRLRPPRLPRPRPRPNCRPRP,0.00739
22,RRIRSRPPRLPRPRPRPSVSPRP,-0.0446
23,RRIRMRPPRLPRPRPRPIVIPRP,-0.0284
24,RRIRKRPPRLPRPRPRPSINPRP,0.0278
25,RRIRIRPPRLPRPRPRPIVCPRP,0.000993
